Columns and labels:
[1] = target: DdrI (DR0997), CRP family protein from Deinococcus radiodurans, untagged (Deinococcus radiodurans); assay: SEC; gel filtration of the purified protein to check homogeneity and oligomeric state; also run with cAMP and Mn2+ added (dimer formation not affected)
[2] = target: eGFP-DdrI (DdrI with N-terminal fused eGFP) (Deinococcus radiodurans); assay: as above

Substance	stoichiometry N [1]	stoichiometry N [2]
DdrI (DR0997), CRP family protein from Deinococcus radiodurans, untagged (natural protein)	2	–
eGFP-DdrI (DdrI with N-terminal fused eGFP) (natural protein)	–	2

From paper PMC11253593
